# Experimental data reported in article PMC11009412, “Pathogenic mutations of human phosphorylation sites affect protein–protein interactions” (Nature Communications, 2024).
# B1: C19orf43 (protein, UniProt Q9BQ61 1-176, looked up)
# Telomerase RNA component …: MAARGRRAEPQGREAPGPAGGGGGGSRWAESGSGTSPESGDEEVSGAGSSPVSGGVNLFANDGSFLELFKRKMEEEQRQRQEEPPPGPQRPDQSAAAAGPGDPKRKGGPGSTLSFVGKRRGGNKLALKTGIVAKKQKTEDEVLTSKGDAWAKYMAEVKKYKAHQCGDDDKTRPLVK
# B2: NOL8 (protein, UniProt Q76FK4 1-1167, looked up)
# Nucleolar protein 8: MKVNRETKRLYVGGLSQDISEADLQNQFSRFGEVSDVEIITRKDDQGNPQKVFAYINISVAEADLKKCMSVLNKTKWKGGTLQIQLAKESFLHRLAQEREAAKAKKEESTTGNANLLEKTGGVDFHMKAVPGTEVPGHKNWVVSKFGRVLPVLHLKNQHKRKIIKYDPSKYCHNLKKIGEDFSNTIPISSLTWELEGGNDPMSKKRRGEFSDFHGPPKKIIKVQKDESSTGSLAMSTRPRRVIERPPLTQQQAAQKRTCDSITPSKSSPVPVSDTQKLKNLPFKTSGLETAKKRNSISDDDTDSEDELRMMIAKEENLQRTTQPSINESESDPFEVVRDDFKSGVHKLHSLIGLGIKNRVSCHDSDDDIMRNDREYDSGDTDEIIAMKKNVAKVKNSTEFSQMEKSTKKTSFKNRENCELSDHCIKLQKRKSNVESALSHGLKSLNRKSPSHSSSSEDADSASELADSEGGEEYNAMMKNCLRVNLTLADLEQLAGSDLKVPNEDTKSDGPETTTQCKFDRGSKSPKTPTGLRRGRQCIRPAEIVASLLEGEENTCGKQKPKENNLKPKFQAFKGVGCLYEKESMKKSLKDSVASNNKDQNSMKHEDPSIISMEDGSPYVNGSLGEVTPCQHAKKANGPNYIQPQKRQTTFESQDRKAVSPSSSEKRSKNPISRPLEGKKSLSLSAKTHNIGFDKDSCHSTTKTEASQEERSDSSGLTSLKKSPKVSSKDTREIKTDFSLSISNSSDVSAKDKHAEDNEKRLAALEARQKAKEVQKKLVHNALANLDGHPEDKPTHIIFGSDSECETEETSTQEQSHPGEEWVKESMGKTSGKLFDSSDDDESDSEDDSNRFKIKPQFEGRAGQKLMDLQSHFGTDDRFRMDSRFLETDSEEEQEEVNEKKTAEEEELAEEKKKALNVVQSVLQINLSNSTNRGSVAAKKFKDIIHYDPTKQDHATYERKRDDKPKESKAKRKKKREEAEKLPEVSKEMYYNIAMDLKEIFQTTKYTSEKEEGTPWNEDCGKEKPEEIQDPAALTSDAEQPSGFTFSFFDSDTKDIKEETYRVETVKPGKIVWQEDPRLQDSSSEEEDVTEETDHRNSSPGEASLLEKETTRFFFFSKNDERLQGSDLFWRGVGSNMSRNSWEARTTNLRMDCRKKHKDAKRKMKPK
# B3: PPP1R10 (protein, UniProt Q96QC0 1-940, looked up)
# Serine/threonine-protein …: MGSGPIDPKELLKGLDSFLNRDGEVKSVDGISKIFSLMKEARKMVSRCTYLNILLQTRSPEILVKFIDVGGYKLLNNWLTYSKTTNNIPLLQQILLTLQHLPLTVDHLKQNNTAKLVKQLSKSSEDEELRKLASVLVSDWMAVIRSQSSTQPAEKDKKKRKDEGKSRTTLPERPLTEVKAETRAEEAPEKKREKPKSLRTTAPSHAKFRSTGLELETPSLVPVKKNASTVVVSDKYNLKPIPLKRQSNVAAPGDATPPAEKKYKPLNTTPNATKEIKVKIIPPQPMEGLGFLDALNSAPVPGIKIKKKKKVLSPTAAKPSPFEGKTSTEPSTAKPSSPEPAPPSEAMDADRPGTPVPPVEVPELMDTASLEPGALDAKPVESPGDPNQLTRKGRKRKSVTWPEEGKLREYFYFELDETERVNVNKIKDFGEAAKREILSDRHAFETARRLSHDNMEEKVPWVCPRPLVLPSPLVTPGSNSQERYIQAEREKGILQELFLNKESPHEPDPEPYEPIPPKLIPLDEECSMDETPYVETLEPGGSGGSPDGAGGSKLPPVLANLMGSMGAGKGPQGPGGGGINVQEILTSIMGSPNSHPSEELLKQPDYSDKIKQMLVPHGLLGPGPIANGFPPGGPGGPKGMQHFPPGPGGPMPGPHGGPGGPVGPRLLGPPPPPRGGDPFWDGPGDPMRGGPMRGGPGPGPGPYHRGRGGRGGNEPPPPPPPFRGARGGRSGGGPPNGRGGPGGGMVGGGGHRPHEGPGGGMGNSSGHRPHEGPGGGMGSGHRPHEGPGGSMGGGGGHRPHEGPGGGISGGSGHRPHEGPGGGMGAGGGHRPHEGPGGSMGGSGGHRPHEGPGHGGPHGHRPHDVPGHRGHDHRGPPPHEHRGHDGPGHGGGGHRGHDGGHSHGGDMSNRPVCRHFMMKGNCRYENNCAFYHPGVNGPPLP
# B4: SUGP1 (protein, UniProt Q8IWZ8 1-645, looked up)
# SURP and G-patch …: MSLKMDNRDVAGKANRWFGVAPPKSGKMNMNILHQEELIAQKKREIEAKMEQKAKQNQVASPQPPHPGEITNAHNSSCISNKFANDGSFLQQFLKLQKAQTSTDAPTSAPSAPPSTPTPSAGKRSLLISRRTGLGLASLPGPVKSYSHAKQLPVAHRPSVFQSPDEDEEEDYEQWLEIKVSPPEGAETRKVIEKLARFVAEGGPELEKVAMEDYKDNPAFAFLHDKNSREFLYYRKKVAEIRKEAQKSQAASQKVSPPEDEEVKNLAEKLARFIADGGPEVETIALQNNRENQAFSFLYEPNSQGYKYYRQKLEEFRKAKASSTGSFTAPDPGLKRKSPPEALSGSLPPATTCPASSTPAPTIIPAPAAPGKPASAATVKRKRKSRWGPEEDKVELPPAELVQRDVDASPSPLSVQDLKGLGYEKGKPVGLVGVTELSDAQKKQLKEQQEMQQMYDMIMQHKRAMQDMQLLWEKAVQQHQHGYDSDEEVDSELGTWEHQLRRMEMDKTREWAEQLTKMGRGKHFIGDFLPPDELEKFMETFKALKEGREPDYSEYKEFKLTVENIGYQMLMKMGWKEGEGLGSEGQGIKNPVNKGTTTVDGAGFGIDRPAELSKEDDEYEAFRKRMMLAYRFRPNPLNNPRRPYY
# B5: NACC1 (protein, UniProt Q96RE7 1-527, looked up)
# Nucleus accumbens-associated …: MAQTLQMEIPNFGNSILECLNEQRLQGLYCDVSVVVKGHAFKAHRAVLAASSSYFRDLFNNSRSAVVELPAAVQPQSFQQILSFCYTGRLSMNVGDQFLLMYTAGFLQIQEIMEKGTEFFLKVSSPSCDSQGLHAEEAPSSEPQSPVAQTSGWPACSTPLPLVSRVKTEQQESDSVQCMPVAKRLWDSGQKEAGGGGNGSRKMAKFSTPDLAANRPHQPPPPQQAPVVAAAQPAVAAGAGQPAGGVAAAGGVVSGPSTSERTSPGTSSAYTSDSPGSYHNEEDEEEDGGEEGMDEQYRQICNMYTMYSMMNVGQTAEKVEALPEQVAPESRNRIRVRQDLASLPAELINQIGNRCHPKLYDEGDPSEKLELVTGTNVYITRAQLMNCHVSAGTRHKVLLRRLLASFFDRNTLANSCGTGIRSSTNDPRRKPLDSRVLHAVKYYCQNFAPNFKESEMNAIAADMCTNARRVVRKSWMPKVKVLKAEDDAYTTFISETGKIEPDMMGVEHGFETASHEGEAGPSAEALQ
# System: BirA*-FLAG-GATAD1 variants in Flp-In-293 cells
# Experiment: BioID proximity labelling of full-length GATAD1 variants (SILAC)
# Assay type: cell-based, human
# Details: GATAD1 WT vs S102P, forward experiment (label swap performed, sign inverted against the H/L ratio), log2 of normalized H/L ratio, significant proteins only
# Description: The GATAD1 gene variants were ordered in a pTwist ENTR Kozak vector from Twist Bioscience. The genes were then transferred to a pDEST_pcDNA5_BirA_FLAG_Nterm vector[97] using the Gateway Clonase II system (Thermo Fisher Scientific). The resulting vectors, pEXPR_GATAD1-WT_N-term_BirA_FLAG, pEXPR_GATAD1-S102P_N-term_BirA_FLAG, pEXPR_GATAD1-S102D_N-term_BirA_FLAG, and pEXPR_GATAD1-S102A_N-term_BirA_FLAG, were used to generate tetracycline-inducible stable Flp-In^TM-293 T-REx cells. A 6-well plate was co-transfected with 0.5 µg of the pEXPR plasmid and 1 µg of the pOG44 Flp-recombinase expression vector (Thermo Fisher Scientific) using 4.5 µg of PEI (Polysciences) as a transfection reagent. The following day, the cells were trypsinized and transferred to a 10 cm dish containing DMEM supplemented with 10% FCS and 200 µg/ml hygromycin B (Invivogen) for selection. The cells were cultured for approximately 18 days with media exchange every 3 days until visible colonies were observed. After around 18 days, the colonies were trypsinized and transferred to another 10 cm dish for further characterization and experiments.
# Stable Flp-In^TM-293 cell lines expressing GATAD1 variants were cultured using SILAC light (Lys0, Arg0) and SILAC heavy (Lys8, Arg10) media, as explained in the cell culture section. After full labeling, cells were split into 15 cm dishes and were treated with 1 μg/mL tetracycline for 24 h to induce the expression of GATAD1. After the induction period, cells were incubated with 50 μM biotin overnight for proximity biotinylation. As a control, wild-type GATAD1 cells, without biotin or tetracycline addition, were used. Samples were multiplexed, as shown in Supplementary Fig. 41A with both forward and reverse label swap (n = 2). Cells were then lysed in lysis buffer (50 mM Tris-HCl pH 7.5, 150 mM NaCl, 1% Triton X-100, 1 mM EDTA, 1 mM EGTA, 0.1% SDS) with freshly added protease inhibitors and 1% sodium deoxycholate. To digest the excess DNA, 1 μl of Benzonase was added, and the samples were incubated for 20 min at 37 °C. Biotinylated proteins were enriched for 3 h at 4 °C using streptavidin-sepharose beads (GE Cat# 17-5113-01). Beads were pre-washed twice with 0.01% BSA and twice with lysis buffer. After enrichment, the beads were washed one time with lysis buffer, two times with washing buffer (50 mM HEPES-KOH pH 8.0, 100 mM KCl, 10% glycerol, 2 mM EDTA, 0.1% NP-40), and six times with 50 mM ammonium bicarbonate. Beads were resuspended in ammonium bicarbonate, and an on-bead protein digest with 1 μg of trypsin followed overnight. The next day, the digested proteins were transferred to a fresh tube and were incubated with 10 mM DTT for 30 min at 37 °C and with 55 mM iodoacetamide for 20 min at 37 °C in the dark. Samples were desalted with StageTips.
# Peptides were separated using reversed-phase liquid chromatography (EASY nLC II 1200, Thermo Fisher Scientific) with self-made C18 microcolumns (20 cm long) packed with ReproSil-Pur C18-AQ 1.9 μm resin (Dr. Maisch, cat# r119.aq.0001). The chromatography system was coupled online to the electrospray ion source (Proxeon) of an Orbitrap Exploris 480 mass spectrometer (Thermo Fisher Scientific). The mobile phase consisted of buffer A (0.1% formic acid and 5% acetonitrile) and buffer B (0.1% formic acid and 80% acetonitrile). Peptides were eluted using a gradient with increasing concentrations of buffer B over 110 minutes, at a flow rate of 250 nl/min. Mass spectrometry data was acquired in data-dependent mode with settings for one full scan (resolution: 60,000; m/z range: 350–1600; normalized AGC target: 300%; maximum injection time: 10 ms), followed by top 20 MS/MS scans using higher-energy collisional dissociation (resolution: 15,000; m/z range: 200–2000; normalized AGC target: 100%; maximum injection time: 120 ms; isolation width: 1.3 m/z; normalized collision energy: 28%).
# Raw files were analyzed with MaxQuant, version 2.0.3.0. […]
row,Molecule,Log2_Ratio.H.L.normalized.WT_S102P_forward
1,B1,2.125
2,B2,1.703
3,B3,1.288
4,B4,1.6946
5,B5,1.531

# Same assay, conditions: GATAD1 WT vs S102P, forward experiment, normalized H/L ratio, significant proteins only
row,Molecule,Ratio.H.L.normalized.WT_S102P_forward
1,B1,0.2293
2,B2,0.3071
3,B3,0.4096
4,B4,0.3089
5,B5,0.346

# Same assay, conditions: GATAD1 WT vs S102P, reverse experiment, log2 of normalized H/L ratio, significant proteins only
row,Molecule,Log2_Ratio.H.L.normalized.WT_S102P_reverse
1,B1,1.257
2,B2,1.269
3,B3,1.038
4,B4,1.162
5,B5,1.188

# Same assay, conditions: GATAD1 WT vs S102P, reverse experiment, normalized H/L ratio, significant proteins only
row,Molecule,Ratio.H.L.normalized.WT_S102P_reverse
1,B1,2.3903
2,B2,2.4103
3,B3,2.0533
4,B4,2.2378
5,B5,2.2785
